Literature values in publication PMC6258485.

Biological target: CD55 (Homo sapiens) (UniProt P08174)
Sequence of UniProt P08174 (P08174 35-353): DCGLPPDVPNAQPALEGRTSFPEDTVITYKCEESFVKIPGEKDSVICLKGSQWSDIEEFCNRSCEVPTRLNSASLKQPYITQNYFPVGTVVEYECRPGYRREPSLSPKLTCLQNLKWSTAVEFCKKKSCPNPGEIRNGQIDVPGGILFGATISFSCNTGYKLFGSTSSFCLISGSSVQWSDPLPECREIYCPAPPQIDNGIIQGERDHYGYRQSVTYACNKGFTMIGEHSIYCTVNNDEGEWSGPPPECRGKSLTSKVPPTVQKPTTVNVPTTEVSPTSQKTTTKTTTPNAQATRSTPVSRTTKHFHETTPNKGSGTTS

Question: With CD97 (from UniProt P48960) as the substance, how does the Kd read?
Answer: 86 µM
